± gives the uncertainty stated by the source.
Test: protein stability index of a GFP-peptide fusion (yeast GPS) (PSI 1-4); higher = more stable; sorted into four equal gates, so the index is relative within each strain
Details: pdr5∆
Procedure, shortened: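 The protein stability index of a peptide was calculated by multiplying its read frequency in each gate by that gate's number and adding the products. The peptides were tiled 17-residue stretches of yeast proteins, fused downstream of GFP on a Cherry-expressing plasmid and carried in yeast as a pooled library. Mid-log cultures in leucine-free medium were sorted into four equal gates by GFP/Cherry ratio, and each gate's plasmids were PCR-amplified and Illumina-sequenced.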

Sequence | protein stability index
SHKTTKEDTVSWFKQKY [RPL11A] | 1.56 ± 0.054
SHNWAAKAKRRHTTGTG [RPL37B] | 2.92 ± 0.058

Same assay, conditions: san1∆

Sequence | protein stability index
RNEDARRNLRYGDRMKL [RPO31] | 3.21 ± 0.08
RNEKRMFLEFQSTQTDL [SMC2] | 3.24 ± 0.14
RNLNNLKQENAYLLIRR [RPB8] | 3.15 ± 0.071
RNNVMLLIATNLKEYNK [SRB8] | 2.74 ± 0.081
RNSKLLNTKSIQIDEET [MCD1] | 3.18 ± 0.061
RNSNPENTVGLISGAGA [RPN10] | 2.6 ± 0.067
RNVGKTLVNKSTGLKNA [RPS1B] | 2.59 ± 0.12
RNVGKTLVNKSTGLKSA [RPS1A] | 2.59 ± 0.12
RNVTKGDIVRMLETAGF [SMC3] | 2.76 ± 0.1
RPDGVHVINVGKTWEKL [RPS0A] | 3.4 ± 0.13
RPDIVHTVFTSVNKNKR [RPL4A] | 1.24 ± 0.17
RPEQLSNIIHDESDTIS [SNF6] | 2.02 ± 0.11
RPLPQWIRLRTNNTIRY [RPL39] | 1.5 ± 0.067
RPNLPTHNFKLSGVSNS [RGR1] | 1.85 ± 0.088
RQCFREKANDIGFHKYR [RPS29B] | 2.96 ± 0.1
RQQQENSSKIITLDLSN [SMC1] | 3.18 ± 0.066
RRILPKPSRTSRQVQKR [RPS7A] | 2.74 ± 0.1
RRISSMPGGYFHSEISP [YAR002W/NUP60] | 2.96 ± 0.094
RRKFDPSSSENVMTPRE [UBP6] | 2.45 ± 0.22
RRRREGKTDYYQRKRLV [RPL5] | 3.13 ± 0.046
RRSTPFSKIAEYYRIQK [ESC2] | 2.72 ± 0.078
RRVPKELAVENPLAKTM [SEC65] | 2.47 ± 0.054
RSDSYMLHKVLENKADP [RPT6] | 2.93 ± 0.056
RSEKSTTNAQTKKLIQK [SRP54] | 2.77 ± 0.15
RSGSNAAASLPSKKLKT [RPC82] | 2.71 ± 0.05

Sequence | protein stability index
RSINNLIQEHDSRKNRE [BRN1] | 3.15 ± 0.043
RSKNLIFNGETLEDALR [GRR1] | 2.65 ± 0.057
RSMLTVVRNMLALTTLS [YCG1] | 2.29 ± 0.065
RSRMLPTITLDDVYRPA [SNF5] | 3.04 ± 0.075
RSTDVWYEASTWIQQFK [ARP7] | 2.45 ± 0.28
RTFRLNECVCTPYNADF [RPO31] | 2.77 ± 0.054
RTKTPGPGGQAALRALA [RPS14B] | 2.23 ± 0.1
RTMDDIKDSVREVGTKF [ECM29] | 3.27 ± 0.088
RTPVPSTLMPGGVDVGP [SNF5] | 2.73 ± 0.17
RVADEDANLNDLPETGF [IRR1] | 3.44 ± 0.078
RVHDQPLIWQLLQSSII [POP3] | 1.66 ± 0.11
RVIKDFKKLNSKNMSKS [YMR153W/NUP53] | 2.64 ± 0.21
RVKDPQWLIMLGICTHL [RIP1] | 2.36 ± 0.075
RVKIANTSAATVHTATS [SSN2] | 2.39 ± 0.071
RVLTQDGRVYIGQLMAF [SMB1] | 2.63 ± 0.09
RVNLSENTPEPDLPALE [SMC4] | 3.1 ± 0.086
RVWAEYATKRQEAIQQN [PRP8] | 2.61 ± 0.1
RYADAGNIDTKNNILGS [RRP43] | 3.12 ± 0.039
RYIWRSLKDLSSLRNQE [RPN3] | 2.85 ± 0.094
RYKPGTVALREIRRFQK [HHT1] | 3.07 ± 0.065
RYSRQFINNVLSNPSNQ [GRR1] | 1.91 ± 0.1
SAAGNKAIPTFSFGKPF [YIL149C/MLP2] | 2.96 ± 0.045
SAAKASQSRSAKAGLTF [HTA1] | 2.98 ± 0.042
SAIDVLDPLTKDPVDFV [RPN2] | 3.15 ± 0.074
SAKMILLSDPTITIKSY [PRP8] | 3.1 ± 0.099

Sequence | protein stability index
SALIENNLFRIIAELSF [YJL039C/NUP192] | 2.04 ± 0.074
SANVELFKRDCNQMENL [YCS4] | 3.4 ± 0.062
SAPAPAAAAPAPVAAAA [FAS2] | 2.49 ± 0.13
SASHILIPASDLSWSKQ [PRP8] | 1.53 ± 0.082
SAVIIDEFKDITKEVTQ [YIL149C/MLP2] | 2.39 ± 0.06
SAYEASMVYSNVGELIE [RRP4] | 2.32 ± 0.058
SCGYPSAKTRSHNWAAK [RPL37B] | 3.3 ± 0.09
SCISISDIISMLQISDD [RRI2] | 1.19 ± 0.12
SCTLLERGHPKDNARIY [POP1] | 2.76 ± 0.055
SDGEDGHIPWHILAVKK [SSN2] | 3.23 ± 0.1
SDGQSRVKDIHLRKLLD [RET1] | 3.11 ± 0.068
SDKPSLPSAVDGENDKK [YLR335W/NUP2] | 3.37 ± 0.071
SDNIASLQYINIRGNTI [SMD1] | 2.86 ± 0.063
SDPAAKKTATEPKQKAN [SRP21] | 3.32 ± 0.046
SDPNNQSLNEMVKLIVM [YJL039C/NUP192] | 2.97 ± 0.078
SDSLGPDTSNEICDLAY [SRB2] | 3.29 ± 0.065
SDWNPQADLQAMDRAHR [ISW2] | 3.14 ± 0.11
SEDVSRDHEKDTYRTLM [YIL149C/MLP2] | 3.43 ± 0.035
SEKQNDEEAAGASTVMK [PRP8] | 3.38 ± 0.11
SELIRTTLDAEKVFTQG [FAS1] | 3.22 ± 0.079
SELQRLSHENNVMLEKI [RPT5] | 2.89 ± 0.063
SENRDKFLQEFINLLLN [IRR1] | 2.43 ± 0.076
SESKQLGNTSSVANTPS [SWI3] | 2.98 ± 0.073
SESVGAFLSFLAYRNYW [YJL039C/NUP192] | 1.72 ± 0.12
SEVLVDTLDSKSNGSSD [ISW2] | 3.11 ± 0.054

Sequence | protein stability index
SFDFGNENEDEDEGTLN [ARP9] | 3.41 ± 0.1
SFFIASQLQEQFNKILP [FAS1] | 2.54 ± 0.081
SFKGSPNERKAKQAKIR [SNF2] | 3.39 ± 0.18
SFQKNSLHNTEKIMENK [AAR2] | 2.93 ± 0.042
SFSDENSDDFFMDNSYD [ESC2] | 2.63 ± 0.1
SFYDAIFFNIPLVAHLG [YJL039C/NUP192] | 2.02 ± 0.027
SGEPIIAATQDFITGSY [RPO31] | 3.13 ± 0.12
SGHFSTDSRTGQSTILV [CDC53] | 3.05 ± 0.038
SGITDPYEMYKYVHVSE [FAS2] | 2.48 ± 0.07
SGLFVDVKKRTYEAIDV [RPB2] | 2.99 ± 0.1
SGNIQLDEIIEIARQMR [RPL12A] | 3.05 ± 0.08
SGNTNGAGSAFGFSSSG [YOR098C/NUP1] | 3.07 ± 0.064
SGQTFAYGVLDSNYKWD [PRE2] | 1.85 ± 0.14
SGRCDGYILEGEELAFY [RPS8A] | 3.29 ± 0.093
SGTSSDPDTKKVKESPA [YIL149C/MLP2] | 3.14 ± 0.038
SGTYHLNCGNGMGIGFI [POP1] | 2.44 ± 0.077
SGYVRSRGESDDSLNRL [RPS21A] | 2.17 ± 0.084
SHFVSAVSTIASISLAI [RPP0] | 1.21 ± 0.13
SHGNPVVDFLKRNGSTL [FAS1] | 3.1 ± 0.043
SHILNSHSLALNEITNS [DSN1] | 2.28 ± 0.037
SHKTTKEDTVSWFKQKY [RPL11A] | 1.36 ± 0.12
SHNWAAKAKRRHTTGTG [RPL37B] | 3.33 ± 0.071

— the supplement of paper PMC9732359
